The nanobody polyreactivity screen of Harvey et al. (2022)

Experiment: yeast display, Sf9 membrane polyspecificity reagent, FACS + sequencing; frameworks hold sequencing errors
In short: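 A nanobody's polyreactivity label depends on the gate it was sorted from. Yeast display cells were stained with 10% biotinylated, detergent-solubilized Sf9 membrane reagent for 1 hour at 4 °C, enriched on streptavidin microbeads and sorted by FACS. The low and high (top ~1%) gates were set on anti-HA fluorescence for expression and streptavidin fluorescence for reagent binding.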

Sequence	polyreactivity (PSR sort gate)
QVQLVESGGGLVQAGGSLRLSCAASGRIVGRYVMGWYRQARGKERELVAAITSGGSTYYADSVKGRFTISRDNAKNTVYLQMNSLKPEDTAVYYCAAKWRSPRYYLYGYWGQGTQVTVSS	high polyreactivity
QVQLVESGGGLVQAGGSLRLSCAASGRIVSLNAMGWNRQAPGKERELVAGIRKRGRSTYYADSVKGRFTISRDNAKNTVYLQMNSLKPEDTAVYYCAAQPALTYRFYYWGQGTQVTVSS	high polyreactivity
QVQLVESGGGLVQAGGSLRLSCAASGRIVVPYAMGWYRQAPGKERELVAAITSGGSTYYADSVKGRFTISRDNAKNTVYLQMNSLKPEDTAVYYCAATSRRSSETYYFWGQGTQVTVSS	high polyreactivity
QVQLVESGGGLVQAGGSLRLSCAASGRIWSNAMGWYRQAPGKERELVAVISSRGGSTYYADSVKGRFTISRDNAKNTVYFQMNSLKPEDTAVYYCAARQRAKYNYWGQGTQVTVSS	high polyreactivity
QVQLVESGGGLVQAGGSLRLSCAASGRIYAMGWYRQAPGKERELVAAISRGGSTYYADSVKGRFTISRDNAKNTVYLQKNSLKPEDTAVYYCNRKSYRLRWKVRGQYLLGYDWGQGTQVTVSS	high polyreactivity
QVQLVESGGGLVQAGGSLRLSCAASGRIYAMGWYRQAPGKERELVAAISYSGGSTYYADSVKGRFTISRDNAKNTVYLQMNSLKPEDTAVYYCAAVIYRGYYYWGQGTQVTVSS	high polyreactivity
QVQLVESGGGLVQAGGSLRLSCAASGRIYGAYAMGWYRQAPGKEMEMVAAITSAGSTLYADSVKGRFTISRDNAMNTVYLQMNSLNPEDTAVYYCAADGIARAYVLFDAYDFLYDYWGQGTQVTVSS	low polyreactivity
QVQLVESGGGLVQAGGSLRLSCAASGRIYLRYTMGWYRQAPGKERELVAAISARTTGTYYADSVKGRFTISRDNAKNTVYLQMKSLKPEDTAVYYCASKSKLSRDLYSWGQGTQVTVSS	low polyreactivity
QVQLVESGGGLVQAGGSLRLSCAASGRIYRNAMGWYRPAPGKERELVAAISSRGASTYYADSVKGRFTITRDNAKNTVYLQMNSLKPEDTAVYYCAARTSSSSGYYAREYWGQGTQVTVSS	high polyreactivity
QVQLVESGGGLVQAGGSLRLSCAASGRIYTWNAMGWYRQAPGKERDLVASISRSGTSTYYADSVKGRNTISRDNALTTVYLQMNSLKPEDTAVYYCAAKTSRGDRTQVEYWGQGTQVTVSS	high polyreactivity
QVQLVESGGGLVQAGGSLRLSCAASGRIYVKNAMGWYRPAPGKERELVAAINWRGTSTYYADSVKGRFTISRDNAKNTVYLQMKSLKPEDTAVYYCNRVLGYPYGVDYWGQGTQVTVSS	high polyreactivity
QVQLVESGGGLVQAGGSLRLSCAASGRIYWWYAMGGSRQEPGKERELVAGISWSGGSTYYADSVKGRFTISRDNAKNTVYLQMNSLKPEDSAVYYCNAQYASGRSYFFYWHRFDYGGQGTQVTVSS	high polyreactivity
QVQLVESGGGLVQAGGSLRLSCAASGRIYYNAMGWYRQAPGKEGELVAAISGSGTRTYYADSVKGRFTISRDNAKTTVYLQMNSQKPEDTAVYYCARYYSHYSTYDYVRYGYWGQGTQVTVSS	high polyreactivity
QVQLVESGGGLVQAGGSLRLSCAASGRIYYYAMGWYRQAPGKERELVAAISRGGSTKYADSVKGRFTISRDNAKNTVYLQMNSLKPEETAVYYCAAGGTVYRYDYWGQGTQVTVSS	low polyreactivity
QVQLVESGGGLVQAGGSLRLSCAASGRLFDSNARGWYSQAPGKERELVAAISSGASTYYADSVKGRFTISRDNAKNTVYLQMNSLKPEDTAVYYCAVRLRYAYRARGNYWGQGTQVTVSS	low polyreactivity
QVQLVESGGGLVQAGGSLRLSCAASGRLFKSYAMGWYRQAPGKEREFVAAISTRSSSTYYADSVKGLFTISRDNAKNTVYLQMNSLKPEDTAVYYCAATPRRVSPYGVPYGDVYWGQGTQVTVSS	low polyreactivity
QVQLVESGGGLVQAGGSLRLSCAASGRLFPYYDMGWYRQAPGKERELVAAITGNGGSTYYADSVKGRFTISRDNAKNTVYLQMNSLKPEDTAVYYCAVDPYYYGEDYWGQGTQVTVSS	low polyreactivity
QVQLVESGGGLVQAGGSLRLSCAASGRLFSRNVMGWSRQAPGKERELVAAISSSGSTYADSVKGRFTISRDNEKNTVYLQMNSLKPEDTAVSYCAAVIYLWGQGTQVTVSS	high polyreactivity
QVQLVESGGGLVQAGGSLRLSCAASGRLLPIYAMGWYRQAAGKERELVATISWTSDSTYYADSVKGRFTISRDNAKNTVYLQMNSLKPEDTAFYYCAREYTYNYASTVIYDHWGQGTQVTVSS	low polyreactivity
QVQLVESGGGLVQAGGSLRLSCAASGRMFRWYAMGWYRPAPGKERELVAAITSGGSTNYADSVKGRFTISRDNAKNTVYLKMNSLKPEDTAVYYCAARWKFPSSFYYWGQGTQVTVSS	high polyreactivity
QVQLVESGGGLVQAGGSLRLSCAASGRMFWSNAMGWYIQAPGKERELFAAIRNTGSTNYADSVKGRFTISRDNAKNTVYLQMNSLKPEDTAVYYCAAYKGSSKYDYWGQGTQVTVSS	high polyreactivity
QVQLVESGGGLVQAGGSLRLSCAASGRNFENNAMGWYRQAPGKERELVAAITSSGGRTYYADSVKGRFTISRDNAKNTVYLQMNSLKPEDTAVYYCAADNFAPEFYYWGQGTQVTVSS	low polyreactivity

Sequence	polyreactivity (PSR sort gate)
QVQLVESGGGLVQAGGSLRLSCAASGRNFGNYAMGGYRQAPGKERELVAAISNGGSTNYADSVKGRVTISRDNAKNTVYFQMNSLKPEDTAVYYCNADQWAVIWGYLVLDFYYWGQGTQVPVSS	low polyreactivity
QVQLVESGGGLVQAGGSLRLSCAASGRNFIDYMGWYRQAPGKERELVAAIDSGASTYYADSVKGRFTISRDNAKNTVYLQMNSLNPEDTAVYYCAADVVYDYGGMDYWGQGTLVTVSS	low polyreactivity
QVQLVESGGGLVQAGGSLRLSCAASGRNFIYNAMGWYRQAPGKERELVAAISRSGGSTNYADSVKGRFTISRDNAKNTVYLQMNSLKPEDTAVYYCAVDSGRYYYYLGFSTRYYWGQGTQVTVSS	high polyreactivity
QVQLVESGGGLVQAGGSLRLSCAASGRNFKFYAMGWYRQAPGKERELVAGINTDGGSTYYADSVKGRFTISRDNAKNTVYLQMNSLKPEDTAVYYCNAYYYKPARKYARHYDYWGQGTQVTVSS	low polyreactivity
QVQLVESGGGLVQAGGSLRLSCAASGRNFKIYTMGWYRQAPGKERELVAAISSSGRTYYADSVKGRFTISRDNAKNTVYLQMNSLKPEDTAVYYCAAVPYTRWKGADGDYWGQGTQVTVSS	high polyreactivity
QVQLVESGGGLVQAGGSLRLSCAASGRNFLVYAMGWYRQAPGKERELVAAITYSDGSTYYADSVKGRFTISRDNAKNTVYLQMNSLKPEDTAVYYCAADSSTFPSDYYWGKGTQVTVSS	low polyreactivity
QVQLVESGGGLVQAGGSLRLSCAASGRNFPLNAMGWYRQAPWKERELVAAISIGGSTYYADSVKGRFTISRDNPKNTVYLQMNSLKPDETAVYYCAAVWYTSRQKYDYWGQGTQVTVSS	low polyreactivity
QVQLVESGGGLVQAGGSLRLSCAASGRNFRANAMGWSRQEPGKERELVASITYSGGSTYYADSVKGRFTISRDNAKNTVYVQMNSLKPEDTAVYYCARAGISSGGYYYWGQGTQVTVSS	low polyreactivity
QVQLVESGGGLVQAGGSLRLSCAASGRNFRDYTMGWYRQAPGKERELVAAITSTGDTNYADSVKGRFTISRDNAKNTVYLQMNSLKPEDTAVYYCATQTGEEYQAPLIYDYWGQGTQVTVSS	low polyreactivity
QVQLVESGGGLVQAGGSLRLSCAASGRNFSYYAMGWYRQAPGKERELVAAISWNGGSTYYADSVKGRFTISRDNAKNTVYLQMNSLKPEDTAVYYCAVLPHYEYDYWGQGTQVTVSS	high polyreactivity
QVQLVESGGGLVQAGGSLRLSCAASGRNFTIYAMGWYRQAPGKERELVATISSNVGSTYYADSVKGRFTISRDNAKNTVYLQMNSLKPEDTAVYYCNVVPYLYGLDGYDYWGQGTQVTVSS	high polyreactivity
QVQLVESGGGLVQAGGSLRLSCAASGRNFTSNSMGLYRQAPGKEREFVAAITTSGASTRYADSVKGRFTISRDNAKNTVYLQMNSLKPEDTAVYYCAAEQRRFTGYDYWGQGTQVTVSS	high polyreactivity
QVQLVESGGGLVQAGGSLRLSCAASGRNFVRYTMGWYRQAPGKERELVAAISGSGSSTFYADSVKGRFTISRDNAKNTVYLQMNSLKPEDTAVYYCAARVRRVARDPYDYWGQGTQVTVSS	high polyreactivity
QVQLVESGGGLVQAGGSLRLSCAASGRNFVTNAMGWYRQAPGKERELVAAITRGGNTNYADSVKGRFTISRDNAKNTVYLQMNSLKPEDSAVYYCAADTSYYYVYGYFPGYYYWGQGTQVTVSS	low polyreactivity
QVQLVESGGGLVQAGGSLRLSCAASGRNFYLYGMGWYRQAPGKERELVAAIDWSDGSTYYADSVKGRFTISRDNAKNTVYLQMNSLKPEDTAVYYCAADGWAAWLYDYWGQGTQVTVSS	low polyreactivity
QVQLVESGGGLVQAGGSLRLSCAASGRNFYPYAMVWYRQAPGKERELVAAISKSGGRTYYADSVKGRFTISRDNAKNTVDLQMNSLKPEDTAVYYCNAAPGYTYVTYDYWGQGTLVTVSS	high polyreactivity
QVQLVESGGGLVQAGGSLRLSCAASGRNFYRYAMGRYREAPGKERELVAAIRYSGGRTYYADSVKGRFTISRDNAKNTFYLQMNSLKPEDTAVYYCASDGQWYYAPFRGGDYENDYWGQGTQVTLSS	low polyreactivity
QVQLVESGGGLVQAGGSLRLSCAASGRNFYVYTMGWYRQAPGKERELVAAISWSGGSTHHADSVKGRFTISRDNAKNTVYLQMNSLKPEDTAVYYCNKGVVSRVAFEYWGQGTQVTVSS	low polyreactivity
QVQLVESGGGLVQAGGSLRLSCAASGRNFYYNAMGWYRPAPGKERELVAAISSGGSTTYADSVKGRFTISRDNAKNTVYLQLNSLKPEDTAVYYCNADISAHYVIGVPTGYYWGQGTQVTVSS	low polyreactivity
QVQLVESGGGLVQAGGSLRLSCAASGRNIVGYAMGWYIQAPGKERELVAAITKSGGRTYYADSVKGRFTISRDNAKNTVYLQMNSLKPEDTAVYYCAVLNSKWNEYDYWGQGTQVTVSS	high polyreactivity
QVQLVESGGGLVQAGGSLRLSCAASGRNIYSNAMGWYRQAPGKERELVAAIRWRDGSTYYADSVKGRFTISRDNAKNTVFLQMNSLKPVDTAVYYCAAVYWGEEYEYWGQGTQVTVSS	low polyreactivity
